Laboratory results published in the DeepSol protein solubility set.

Assay: soluble on expression in E. coli; label from the status in PepcDB or PDB records

Sequence | soluble on expression in E. coli
MADRAEMFSLSTFHSLSPPGCRPPQDISLEEFDDEDLSEITDDCGLGLSYDSDHCEKDSLSLGRSEQPHPICSFQDDFQEFEMIDDNEEEDDEEEEEEEEEEEDGDRQGKAGGGPGSQALAGDSLIPSPSLEESHKLRPTTLHLTTLGAQDSLNNNNGGFTSAPPSSWQETVLRSPAQEPLKELPAPLLPAEEERHEVQSLARPGCDCEGNQPPEQPASSGGASPSSDPGIEADLRSHSSGGHEGRRSSQELSSPGSDSEDAGGARLGRMISSISETELELSSDGGSSSGRSSHLTNSIEEASSPASEPEPEPEPLHEPPRRPAFLPVGQDDTNSEYESGSESEPDLSEDADSPWLLSNLVSRMISEGSSPIRCPGQCLSPAPRLPEEAASQANSVPQDCQDPEAGPHVELVDMDTLCGPPPPAPAAPRLGPAQPGPCLFLSNPTRDTITPLWATPGRTARPGRSCSAACSEEEEEDEEEDEEDEEDAEDSVVPPGSRTTGSTAPLDASLVYDAVKYTLVVDEHTQLELVSLRRCAGLGNDSEEDSSCEASEEEAGATLLGSDQVPEDASPDSPDLTFSKKFLNVFVNSTSRSSSTESFGLFSCVVNGEEREQTHRAVFRFIPRHPDELELDVDDPVLVEAEEDDFWFRGFNMRTGERGVFPAFYAHAVPGPAKDLLGSKRSPCWVDRFDVQFLGSVEVP | soluble
MAHHHHHHMRRTAFSLMIVPPESHRYAKATFHEGVHRQAPGDSTPWRDVASPLNRFKMWWLAPAAKGTMTAAWCMTIVMGAYCFSIQQDAKGTYLLNNVLLRTLHEEAMRADANQERANELQEYLKQRLEKLEAGGKAASRNMGGDAVKEGLINHELEISRERVRSDSIHQRNQQLVDELLKVRQELAVTRKKHSAALSEIDKLQKLLKACT | not soluble
MAMVVSSWRDPQDDVAGGNPGGPNPAAQAARGGGGGAGEQQQQAGSGAPHTPQTPGQPGAPATPGTAGDKGQGPPGSGQSQQHIECVVCGDKSSGKHYGQFTCEGCKSFFKRSVRRNLTYTCRANRNCPIDQHHRNQCQYCRLKKCLKVGMRREAVQRGRMPPTQPNPGQYALTNGDPLNGHCYLSGYISLLLRAEPYPTSRYGSQCMQPNNIMGIENICELAARLLFSAVEWARNIPFFPDLQITDQVSLLRLTWSELFVLNAAQCSMPLHVAPLLAAAGLHASPMSADRVVAFMDHIRIFQEQVEKLKALHVDSAEYSCLKAIVLFTSDACGLSDAAHIESLQEKSQCALEEYVRSQYPNQPSRFGKLLLRLPSLRTVSSSVIEQLFFVRLVGKTPIETLIRDMLLSGSSFNWPYMSIQCS | soluble
MKTKVICLVRVSTQDQDYQRQISDLTKYSQARDFVIVDFISEKVSGTKRNEERNGIQELLKRARKKEFQKVIVQEISRLGRNPFQVQRVIEELAELSISVVVQNMNLETLDEGGNRNGFIDLMLSTAVHFSSIERSWIVNRIRSGQKNSKKKIGRPFNTFESKEAVLKKYAAVVRDLKSGISIRKVAKLNDLSTPTIQRVKKLMQEL | not soluble
MVEFVNDPNFKDLVVDTTIDNRNDEEPMTIRNFTELMIQFYKLGWMRGSGGAMGCISGSELMISPSALQKERIREQDVFVYNMKDKTEVQRPPNKRITVSSCSVLFSLIMKETGSECVIHTHSKCANLITQLIKSNVFEISHQEYIKGIYDPFSGKALKYSDTLTIPIIDNMPSESQLLVCAINRSPMQPDCFINIALFQEPIRGVLENYPQAIAVLVRNHGLFVWGPTWESTKIMTECIDYLLELSIEMLKNNIPLVNEEAFEKEDNLSDKMRTLMFGDMAPV | not soluble
MAHHHHHHMENEALKEQEGEENKRILVLHKRYREGPFENRLRFECELEFVQSLSNIDYIKHLYENKYFSDKRFLNYLKYLNYWRTKPYIFYIHFPICLYVLEILNDGKIDEYFSKESSFNNFVYYLKLHWLFYSYQI | not soluble
MGSDKIHHHHHHIDQWIRRQHHPTGNPTATQNKVFIATQNQPLLMDTGEKKSPPPPTPPNPPVNHAIAPVAQHPQPMPIPHQVPSPAHGAAHGHPQAPPMYPGIGFAPGMLQLPQNMQTTIVYTPSMAYDNGHPAAQVN | not soluble
MPIILEKGQKIDLTKGQPKVAKLQVGLGWDPIGQSGGFLSSLFGSKPNVDCDASVVMLEGDRFLNKNDLVYFGNKLSTCGSIIHSGDNLTGEGAGDDETIFVELHKVPSRINRLVFVVNIYDCVNRRQDFGMIRNAYIRIQNPQTGEELARYNLSDNYAGKTTLIAGEMYRHGSEWKFSAVGEGTQDKNLSEIVSRYQ | not soluble
MAEVKEKRHEELGLSDEQVLEMFRTMLLARKIDERMWLLNRAGKIPFVISCQGQEAAQVGAAFALDREKDYALPYYRDMGVVLAFGMTAKELMLSGFAKAGDPNSGGRQMPGHFGQKKNRIVTGSSPVTTQVPHAVGIALAGKMEKKDLVTFVTFGEGSSNQGDFHEGANFAGVHKLPVIFMCENNKYAISIPVEKQLACKNVSDRAIGYGMPGYTVDGNDPLAVYKAVKEAADRGRRGEGPTLIETVSYRLTAHSSDDDDRVYRDKEEVEEAKKNDSIVTFAAYLKEVGVLTEESEKQMLDEIMHIVNEATEYAENAPYAAPEDALKHVYAE | not soluble
MGSDKIHHHHHHMNIQEKSKIEYRSRINRVMDYIDIHLDQPLELKSIAEIANFSPFHFHRIFTFLIGETPIDYIQRLRIEKAACRLRENMDISISEIADSCGFCTVSLFSRVFKKFFGLTPSQFRKTERPVYAQDGILFSKNGQMVSKNLTPKHVLSPQLCSVKFKISYFMETKIEVKEMPDMKAVYCRHMGAFKEIVKAYEKLIKWAEPRGLYIPNVTKSATVTHDDPSVTELSKVRQSACIIVEGDVKGEGEIGNLVIPGGQYAVGHFELGTEDFEKAWNTMCKWFTESGYQQGDGCTYELYHNSHRTHPENKHIVDICIPIKPL | not soluble
MGSDKIHHHHHHWFMPFDNWLYQLQNADPVEISSSGFEIAVIDYSKDGSESGEYSPEEIKIMVDAGVVPVAYVNIGQAEDYRFYWKESWYTNTPEWLGEEDPAWPGNYFVKYWYNEWKEIVFSYLDRVIDQGFKGIYLDRIDSFEYWAQEGVISRRSAARKMINFVLEIAEYVRERKPDMLIIPQNGENILDFDDGQLASTVSGWAVENLFYLKTIPLEENETKSRLEYLIRLNRKGKFILSVDYVDDGSDSFENISRILDYYEKAKRNGCIPYAARSDLELDEMNVIEGIQPPEALKDYESRTYR | not soluble
MESKREYDYILPGRAESYWLATVPEPSYPALKGDIRVDIAIIGGGIAGLTTAYLLKEAGFSSIAVIEAGRILRGVTGHTTAKVTSQHSLIYDRLLSKFGKRQAQQYAESNQAALEKIASIVASKKIDCDFVRKPSYVYAGSEDSTNKIQNEAQTARNLGLPASFEENLPLPFKTYGAVRFNNQAQFHPVKYLNALAEQIHEGGCHIFENTRALKIEGEEPVTITTDKGTIRAHKVVQAMHYPIHDRPGLFFQRLYQSRSYVLGVRIRDPFPDGMFINAEEPVRSLRSQSTDKGELILVSGEGHRTGEEEHEISRYQNLEKWVRSVYSVDSIDYRWSSQDAISIDHIPYIGRQTSGNDSIFLATGFKKWGMTMGTVAAMIIKDMIREKYNPWEEVYDPSRFKPVESAKTLLSQAVEATKGFVGDRILPTHKEASQIGPEEGAIVKIEGERVAAYRDRNGVLYTLNPSCRHLGCIVSWNDAEKTWDCPCHGSRYKATGEVIHSPAVYGLSEKKIRGQDKNNIHTLEHHHHHH | soluble
MGSDKIHHHHHHMTGNDWIGSALHNSITCMGHSAAALAAPFAQASRRLIATLQAGGQVLSCGNGGSSGDAQHLASELVNRFETTRRALPAIALSTDSSVVTAIANDVCYEQIFARQIEALGRPGDCLVAFSTSGNSTNVIAAARTAQQRGMWVLALTGKEGGQLALLLRPVDIELRVPEQNTARIQEVHLVLIHALCSGVDASFVGDAPASVFHTGQVLRDWEALDEACTFRRPLVFTNGVFDVLHRGHVQYLAEARAEGACLVVGVNSDASVRRLGKGADRPVNSEEDRMAVLAGLQAVDFVTVFDDDTPLKLIQHLQPDVLIKGGDWPIERIVGADWVQAGGGRVLSIPFRHERSTTALLQKIRGSQP | not soluble
MTNELLIEIGTEELPAGVINPALDYLKDKINSLLNARQVKTYGTPRRLTLYFKDFENERKEKKEVIWGPPKNVAYDEKGNPTKALEGFLKKNNASLEEVKVLKKDKGEYVAIVRKVIEKSPIEKLQEEFEEILLSVPFPKRMRWTSSKRITFSRPVRWILALFNGQVLKLRFGELESSNKTYGHRFLSKGEVTINNPADYEKTLKEHYVIPDFNERKEIILRALEKSSQEVGGKPSYPEGLVEEVTNLVEYPFPVLGKFDEKYLELPPLVITTVAAHHQRFFCFEKDGKLLNYFLGISNNKPNEKIKEGYEKVLRARLEDALFFYREDLKKDLKSLIPELKKVLFHPKVGSMYEKEERMEKIAQKLCPLLKCEWEKVKEAVWLSKVDLLTEMVKELDELQGYMGYVYAKAQGYDEEVAKALWEQYFPRSLEDKVPETTTGTILSLSDKIDNLYSFFKAGEIPKGSSDPYGLRRSAFGIIKIVDVKNLDLNLEDFKEIYGEFKQYPKLVEFLKQRLISYLEDYPVDIVRAVLNVYSPMEPYKVINSVRVLYEASKSPEFPSVVEAAKRVIRIIPKDWKNYEVDEKLLSEEAERELYQKLTEFENKELKSPLELLPLKEYIDKFFDNVKVMAEDEKIRNNRISLLKRVENLFRTFGDFNEIVIKEG | soluble
MSLIYSSENDYSILEDKTATGKKRDWKGKKRRTNLMAEHYEALESKIGAPYYGKKAEKLISCAEYLSFKRDPETGKLKLYQAHFCKVRLCPMCAWRRSLKIAYHNKLIVEEANRQYGCGWIFLTLTIRNVKGERLKPQISAMMEGFRKLFQYKKVKTSVLGFFRALEITKNHEEDTYHPHFHVLIPVRKNYFGKNYIKQAEWTSLWKKAMKLDYTPIVDIRRVKGKAKIDAEQIENDVRNAMMEQKAVLEISKYPVKDTDVVRGNKVTEDNLNTVLYLDDALAARRLIGYGGILKEIHKELNLGDAEDGDLVKIEEEDDEVANGAFEVMAYWHPGIKNYIIKEGHHHHHH | soluble
MGKEERAKWVNDEYAKAYEKMKSYGEQVKKADKPRVLYLKRSDLTLQGNDNFIKESMELAGADNIAAEAKSITMEEILKLDPEIILLSDFDKFLPQDLYENRIEGQDWSSVSAVVNKRVYKTPVGIYRWDAPGVETPLMMFWLGKMLQPEILEHHHHHH | not soluble
MDSEQINVNLDIGAKAVMLARRAAAAKLNNEKLPEVPDDPIFHEKHGVFTTINTYPDNQLRGCIGFPEPYYELGEGIIKSSIYAATDDPRFDPMEPDELNRVTFELSILTVPQEVTVNPEERPKAITVGKDGIIAVYNGASGLLLPQVATEYRMSAEEFLEALCEKAGLWQGCWKYKKVKISKFQAIVFGEIEPNGKVEQRAAALEHHHHHH | soluble
MKNGEQNGPTTCTNCFTQTTPVWRRNPEGQPLCNACGLFLKLHGVVRPLSLKTDVIKKRNRNSANS | soluble
MAELRQVQVDIQQPGGIRELVQREAGDQVRGQDSFPGPDIRRVYQEVRYERRGKLICLIMAGGLGSRMNRPEKALIEVHGEALVDRTIRCMNGICSDIYALIDPSMERLQGKLRSVNVKVLAKRRGGYIEDLNHAMHSIGKFPILVIPGDIFIFNCSAFLDAVRRGMLAEANVVSFTDAGQYTGISIFNAQSGSYQDIDLNGSVANINTPEDLRAVIERLRTSEKLDGSAGHADG | not soluble
MGSDKIHHHHHHMIKVSQLTVRYGELKAVEDLSLEVQRGEILSLVGPSGCGKTTVVKAILGLIPYEGKIEIFTSRLGYCPQKDVLFDWMTVYENAVLPLVLRKEQPPSNIKELFERFGLSGFEEKRPYQLSGGMRQKLSLLRAVLSGEELLVLDEPFSSVDAYTRKKLQIWLSEIVHRMKSTVVLITHDVEEAVFLSDRILILSDRPARILKEIRVPFSKPRTIKTFSDPRFSEIEEEVLETLMNQP | not soluble
